Test [1] has as its target HuJovi-1 (humanized Jovi-1), human IgG1 (human). Kind of test: SPR; Biacore T200; antibody as human IgG1 captured with an anti-human capture kit on CM5 to 200 RU; TRBC1 or TRBC2 as analyte, 150 s contact, 300 s dissociation, 30 μl/min, 25 °C, HBS-P+ pH 7.4; 1:1 Langmuir model. For orientation: In SPR one partner is held on a chip, and binding of the other changes the refractive index at the surface.

The target in test [2] is KFN (Mut3; HuJovi-1 VH T28K, Y32F, A96N), human IgG1 (human). Described as above.
Sequence of KFN (Mut3; HuJovi-1 VH T28K, Y32F, A96N), human IgG1 (human) (heavy, as listed by the source, chain 1 of 2): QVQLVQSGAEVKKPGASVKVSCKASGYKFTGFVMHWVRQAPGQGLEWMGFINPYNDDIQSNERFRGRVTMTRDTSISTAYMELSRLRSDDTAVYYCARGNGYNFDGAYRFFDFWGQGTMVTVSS
Sequence of KFN (Mut3; HuJovi-1 VH T28K, Y32F, A96N), human IgG1 (human) (light, as listed by the source, chain 2 of 2): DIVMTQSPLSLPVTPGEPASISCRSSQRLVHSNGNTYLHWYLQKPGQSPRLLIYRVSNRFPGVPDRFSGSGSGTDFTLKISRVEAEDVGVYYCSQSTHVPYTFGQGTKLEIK

Sequence of HuJovi-1 (humanized Jovi-1), human IgG1 (human) (heavy, as listed by the source, chain 1 of 2): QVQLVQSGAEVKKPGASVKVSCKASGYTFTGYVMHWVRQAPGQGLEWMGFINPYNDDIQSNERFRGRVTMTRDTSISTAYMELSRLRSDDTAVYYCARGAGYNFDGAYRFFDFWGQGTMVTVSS
Sequence of HuJovi-1 (humanized Jovi-1), human IgG1 (human) (light, as listed by the source, chain 2 of 2): as the sequence (light, as listed by the source, chain 2 of 2) above

Usually Kd stands for the free concentration of one partner at which half of the binding sites on the other are occupied at equilibrium, for simple one-to-one binding. Low values mean higher affinity, high ones lower affinity. What is called koff is a measure of how fast the partners let go of each other. High values mean fast dissociation, low ones slow dissociation. In test [1], “Recombinant, purified TRBC2 (soluble αβ TCR with the β-chain constant domain TRBC2), SPR analyte” registered a dissociation constant Kd of 12.9 µM and a koff of 1.29 s⁻¹.
For the substance “Recombinant, purified TRBC1 (soluble αβ TCR with the β-chain constant domain TRBC1), SPR analyte”, in test [2], the Kd turned out to be 1.96 µM and the dissociation rate constant (koff) was 0.155 s⁻¹.

The record behind these values is article PMC10881500.
